Measurements published in the Immune Epitope Database (IEDB).

target: HLA-A*02:01; test: IEDB peptide-MHC binding, purified MHC/competitive/radioactivity; ≥ and ≤ were set here for values at or beyond the usual limits of such assays; details: source organism: Vaccinia virus WR

Sequence	IC50 [nM]
FLAVLSPTI	0.66
YITALNHLV	0.71
TLTNVVNIST	1240
NIEKYFTFLV	1450
PLYEVNSTM	4580
LLSAINFKI	0.54
SVNIWAIIPL	1120
YIIKNTFNV	0.54
KIIKKMEDMV	2670
VIDEILFKV	1.3
YLDDHRYLFI	12
SVEKIADDRI	3830
KLGNLLLLI	0.43
DVVILLLSSV	907
SLSKQDISL	67
MMKTYIEFV	4.7
YVTKKNNNI	505
HLIKIPLLI	1.9
IVIEAIHTV	1410
SVCNSLSQI	1510
SQSERDNYI	1190
ELIAFSSGTV	997
PLGILSNYV	2710
RTNEEFDPV	140
ILPCPQINTL	1380
AIMESDSFL	173

Sequence	IC50 [nM]
KLNGAMVEYV	6.1
SLHSLSVETI	95
TVMVKINPTL	114
GLHCDFACLM	2800
FVARVFLGL	19
VVLDATNDGL	1450
KIIETYLGRV	30
YLLDDVLYT	1.3
MQRIISLSV	454
VLYDEFKCFI	5.9
LTDKKTFII	881
NIHSEMYSL	580
NIVIFVKRL	1280
SMITMSAFLI	59
TMFKIVYSL	9.3
GLNDYLHSV	1.3
IVALTIMGV	27
DMTKVDVEL	3990
YLMPYSVYI	0.26
HQWDIDSAI	1010
DTWGSDGNPI	1150
EAAITDAAV	2320
FIGYMVKNV	443
AVVYSTCTV	104
LTDSLSSQM	4270
YQYIFLSFFA	19

Sequence	IC50 [nM]
RLIVLFEVFV	103
VLITWLIDYV	0.8
LMIEYNLLT	1.5
LLYILRYIV	138
ILQYDLWNV	0.17
RTCSNWVPL	4.9
LQKFSFKIA	4660
NIYLNFPWL	1210
VMAYVGIKL	1300
LLSYYVVYV	0.46
LLSLLVIWIL	112
ALFGIKLPAL	2.5
FAALGGSVNI	3730
LTNEIYASII	4330
SMIGLCACV	2
YLLDRGADI	8.6
HLNPSRIRI	956
ILPVIFLSI	0.66
MISRHCCIL	1030
FMASPENVIL	1070
CLKDIIDFL	671
PVLMFLLFYV	69
VMNNLSELTA	453
VLVDNVDFAT	16
KLHLISLLSL	97
IMFTCMDPL	2.1

Sequence	IC50 [nM]
YIDAYVSRL	1.9
LILSLTCSV	1.3
TVTNKEGVKI	2880
IIDKDTNSV	62
KQDRSDGYFL	3910
MTPSPFYTVM	1700
FLICHNLRA	17
KVTRFYFNM	95
FIDILLFVI	14
FMMVLPGAA	6.7
WLTSILLSL	1.2
FVFILTAIL	4.1
YLPKQPEGVI	279
TIIALLFAL	12
KLQAAVMET	363
QTSVFSATV	1670
IQAKTKNFTI	4230
YLPKQPEGV	1.2
ILVCYILYI	19
FMIEGLMTSL	0.2
YILCNMALL	0.38
TIATYIDALA	125
SMTENVEEDL	755
RMQRISGSNI	4330
FLVFVKPTT	516
IVVELEPSL	2110

Sequence	IC50 [nM]
ALVALVITI	1.9
HLGYIIRYPV	12
MMIDDFGTA	3.2
FILGIIITV	0.11
IVLFILKIFV	271
MTFGDIPLV	0.98
YILRGLLEA	2.5
MMCYFLTATL	18
QLEHGSCQPV	16
FMYIESIKV	1.3
KLRPNSFWFV	2
YITALNHLVL	280
FIISVISLV	0.91
VMNNLSELT	2080
CVLPAVVYST	303
YMNYYTTYI	1.1
IMLEGETKL	6.7
LMYDIINSV	1.8
YLGMFNPYSL	0.16
FVILYLLAV	7.8
GTYAVNIHV	33
GLYCYFTHL	5.4
TIDFKLKYFL	3030
YVLFTVMTYV	1
ILQISQCQRI	2600
ILYDNVVTL	0.51
